Measured values published in PMC12719032, “Structural and biophysical insights into RomR, MglB, and MglC interactions involved in regulating cell polarity in Myxococcus xanthus” (The Journal of Biological Chemistry, 2025).

T1: MglB-MglC complex (preformed) (M. xanthus, UniProt Q1DB03 1-159; Q1D0B6 1-120)
T1 construct: MglB of Myxococcus xanthus, Uniprot ID Q1DB03; as m7; MglC of Myxococcus xanthus, Uniprot ID Q1D0B6; as m1; also called MglBC; source: purified proteins from E. coli Rosetta (DE3), MglB and MglC premixed in a 2:1 ratio; copies: 4 + 2
T1 sequence (looked up) 1: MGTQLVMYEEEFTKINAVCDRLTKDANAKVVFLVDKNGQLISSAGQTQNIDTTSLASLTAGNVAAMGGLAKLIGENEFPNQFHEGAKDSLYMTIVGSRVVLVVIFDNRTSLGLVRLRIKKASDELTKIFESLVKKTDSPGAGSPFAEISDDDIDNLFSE
T1 sequence (looked up) 2: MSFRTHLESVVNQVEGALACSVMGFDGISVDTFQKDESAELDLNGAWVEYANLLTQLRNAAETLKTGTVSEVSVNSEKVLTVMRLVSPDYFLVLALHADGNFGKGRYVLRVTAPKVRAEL

B1: RomR^371-420 (C-terminal helix of RomR, residues 371-420) (domain or fragment, M. xanthus, UniProt Q1D3Z1 371-420, looked up)
chain: DGGEALLREALSKASREVIEKIAWEVVPQLAETIIREELERLIKDRETQH
notes: synthetic gene from Invitrogen, cloned in pET-Duet-A with a TEV site; no tag cleavage is described; Trimer by SEC-SAXS; also called RomR C-terminal helix; helical domain of RomR; source: E. coli Rosetta (DE3), purified (Ni-NTA, SEC); not shown: His tag, N-terminal, kept
B2: MglC (mutual gliding-motility protein C) (natural protein, M. xanthus, UniProt Q1D0B6 1-120, looked up)
chain: MSFRTHLESVVNQVEGALACSVMGFDGISVDTFQKDESAELDLNGAWVEYANLLTQLRNAAETLKTGTVSEVSVNSEKVLTVMRLVSPDYFLVLALHADGNFGKGRYVLRVTAPKVRAEL
notes: MglC of Myxococcus xanthus (DSM no. 16526, type strain), Uniprot ID Q1D0B6; Homodimer by ASEC and SEC-SAXS; source: E. coli Rosetta (DE3), purified (Ni-NTA, SEC)

Legend:
[1] = molecular target: T1, MglB-MglC complex (preformed); test: BLI; Octet RED 96; RomR^371-420 immobilised on AR2G sensors by EDC/NHS; MglB-MglC complex in solution; 20 mM HEPES pH 8.0, 150 mM NaCl, 10% glycerol; 2:1 (heterogeneous ligand) model and steady state analysis; conditions: both partners purified
[2] = molecular target: the molecule itself; test: SEC-SAXS; BM29, ESRF; Advance BioSEC 300 column; 20 mM Hepes pH 8.0, 150 mM NaCl, 10% glycerol; Mw from Porod volume, fits of models to the scattering data
[3] = molecular target: B2; test: BLI; Octet RED 96; RomR^327-420/RomR^371-420 immobilised on AR2G sensors by EDC/NHS; MglC in solution; 20 mM HEPES pH 8.0, 150 mM NaCl, 10% glycerol; 1:1 binding model; conditions: both partners purified
[4] = molecular target: B2; test: ITC; MicroCal Auto-iTC200; 50 μM RomR^327-420/RomR^371-420 in the cell titrated with 500 μM MglC; 30 injections; one-site model; triplicate; conditions: both partners purified
[5] = molecular target: T1, MglB-MglC complex (preformed); test: ITC; MglB and MglC premixed 2:1; 25 μM of the complex in the cell titrated with 300 μM RomR^371-420; one-site model; triplicate; conditions: both partners purified
[6] = molecular target: B1; test: ITC; MicroCal Auto-iTC200; 50 μM RomR^327-420/RomR^371-420 in the cell titrated with 500 μM MglC; 30 injections; one-site model; triplicate; conditions: both partners purified
[7] = molecular target: RomR^327-420 (C-terminal region of RomR, residues 327-420) (M. xanthus); test: as above
[8] = molecular target: RomR^327-420 (C-terminal region of RomR, residues 327-420) (M. xanthus); test: BLI; Octet RED 96; RomR^327-420/RomR^371-420 immobilised on AR2G sensors by EDC/NHS; MglC in solution; 20 mM HEPES pH 8.0, 150 mM NaCl, 10% glycerol; 1:1 binding model

Kd [1]	Kd [3]	koff [3]	kon [3]	Kd [4]	Kd [5]	dH [5]	dH [6]	stoichiometry N [6]	Kd [7]	stoichiometry N [7]	Kd [8]	koff [8]	kon [8]	Binder	stoichiometry N [2]
280 nM	2.8 nM	0.000652 s⁻¹	228000 M⁻¹ s⁻¹	2.6 nM	~150 nM	-6.07 kcal/mol	–	–	–	–	–	–	–	B1	3
–	–	–	–	–	–	–	-2.59 kcal/mol	0.65	4.2 nM	0.67	5.5 nM	0.000805 s⁻¹	146000 M⁻¹ s⁻¹	B2	2
